Experimental data as given in patent US20220048967A1 (published 2022).
Numbered stars: 1 amine (or outer) side, 2 acyl side, 3 side chain; on linkers, the order of the positions; unused ones are H or OH. Square brackets hold non-standard residues; d marks the D form. Side chains are listed from the residue outwards. Ends that are not written are not given here. * marks the point of attachment. C20 diacid = O=C(O)CCCCCCCCCCCCCCCCCCC(=O)*; γGlu = O=C(O)[C@H](CCC(=O)[*:2])N[*:1]; AEEA = NCCOCCOCC(=O)O; Aib = CC(C)(N)C(=O)O

T1: human GIP receptor (human, UniProt P48546 22-466)
T1 sequence (looked up): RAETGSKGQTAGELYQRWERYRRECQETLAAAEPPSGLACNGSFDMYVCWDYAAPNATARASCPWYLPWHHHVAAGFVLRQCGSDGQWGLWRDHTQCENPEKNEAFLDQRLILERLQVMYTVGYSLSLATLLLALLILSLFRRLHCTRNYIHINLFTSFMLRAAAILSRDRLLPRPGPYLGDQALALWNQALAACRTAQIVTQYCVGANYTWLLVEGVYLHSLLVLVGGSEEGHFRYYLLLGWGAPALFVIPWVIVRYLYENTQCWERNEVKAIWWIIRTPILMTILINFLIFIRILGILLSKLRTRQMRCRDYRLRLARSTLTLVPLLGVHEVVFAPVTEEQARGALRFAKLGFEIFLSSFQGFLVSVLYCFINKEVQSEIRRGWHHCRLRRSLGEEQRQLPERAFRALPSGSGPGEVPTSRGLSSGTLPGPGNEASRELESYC

B1: Example 31 (peptide)
peptide: Y[Aib]EGTFTSDYSILLDKIAK([AEEA-AEEA-γGlu-C20 diacid])[Aib]AFIEYLIEGGPSSGAPPPS-NH2
modifications: N-terminus assumed
SMILES: CC[C@H](C)[C@H](NC(=O)[C@H](CCCCN)NC(=O)[C@H](CC(=O)O)NC(=O)[C@H](CC(C)C)NC(=O)[C@H](CC(C)C)NC(=O)[C@@H](NC(=O)[C@H](CO)NC(=O)[C@H](Cc1ccc(O)cc1)NC(=O)[C@H](CC(=O)O)NC(=O)[C@H](CO)NC(=O)[C@@H](NC(=O)[C@H](Cc1ccccc1)NC(=O)[C@@H](NC(=O)CNC(=O)[C@H](CCC(=O)O)NC(=O)C(C)(C)NC(=O)[C@@H](N)Cc1ccc(O)cc1)[C@@H](C)O)[C@@H](C)O)[C@@H](C)CC)C(=O)N[C@@H](C)C(=O)N[C@@H](CCCCNC(=O)COCCOCCNC(=O)COCCOCCNC(=O)CC[C@H](NC(=O)CCCCCCCCCCCCCCCCCCC(=O)O)C(=O)O)C(=O)NC(C)(C)C(=O)N[C@@H](C)C(=O)N[C@@H](Cc1ccccc1)C(=O)N[C@H](C(=O)N[C@@H](CCC(=O)O)C(=O)N[C@@H](Cc1ccc(O)cc1)C(=O)N[C@@H](CC(C)C)C(=O)N[C@H](C(=O)N[C@@H](CCC(=O)O)C(=O)NCC(=O)NCC(=O)N1CCC[C@H]1C(=O)N[C@@H](CO)C(=O)N[C@@H](CO)C(=O)NCC(=O)N[C@@H](C)C(=O)N1CCC[C@H]1C(=O)N1CCC[C@H]1C(=O)N1CCC[C@H]1C(=O)N[C@@H](CO)C(N)=O)[C@@H](C)CC)[C@@H](C)CC
B2: Example 30 (peptide)
peptide: Y[Aib]EGTFTSDYSILLDKIK([AEEA-AEEA-γGlu-C20 diacid])Q[Aib]AFIEYLIEGGPSSGAPPPS-NH2
modifications: N-terminus assumed
SMILES: CC[C@H](C)[C@H](NC(=O)[C@H](CC(C)C)NC(=O)[C@H](Cc1ccc(O)cc1)NC(=O)[C@H](CCC(=O)O)NC(=O)[C@@H](NC(=O)[C@H](Cc1ccccc1)NC(=O)[C@H](C)NC(=O)C(C)(C)NC(=O)[C@H](CCC(N)=O)NC(=O)[C@H](CCCCNC(=O)COCCOCCNC(=O)COCCOCCNC(=O)CC[C@H](NC(=O)CCCCCCCCCCCCCCCCCCC(=O)O)C(=O)O)NC(=O)[C@@H](NC(=O)[C@H](CCCCN)NC(=O)[C@H](CC(=O)O)NC(=O)[C@H](CC(C)C)NC(=O)[C@H](CC(C)C)NC(=O)[C@@H](NC(=O)[C@H](CO)NC(=O)[C@H](Cc1ccc(O)cc1)NC(=O)[C@H](CC(=O)O)NC(=O)[C@H](CO)NC(=O)[C@@H](NC(=O)[C@H](Cc1ccccc1)NC(=O)[C@@H](NC(=O)CNC(=O)[C@H](CCC(=O)O)NC(=O)C(C)(C)NC(=O)[C@@H](N)Cc1ccc(O)cc1)[C@@H](C)O)[C@@H](C)O)[C@@H](C)CC)[C@@H](C)CC)[C@@H](C)CC)C(=O)N[C@@H](CCC(=O)O)C(=O)NCC(=O)NCC(=O)N1CCC[C@H]1C(=O)N[C@@H](CO)C(=O)N[C@@H](CO)C(=O)NCC(=O)N[C@@H](C)C(=O)N1CCC[C@H]1C(=O)N1CCC[C@H]1C(=O)N1CCC[C@H]1C(=O)N[C@@H](CO)C(N)=O
B3: Example 26 (peptide)
peptide: Y[Aib]EGTFTSDYSIK([AEEA-AEEA-γGlu-C20 diacid])LDKIAQ[Aib]AFIEYLIEGGPSSGAPPPS-NH2
modifications: N-terminus assumed
SMILES: CC[C@H](C)[C@H](NC(=O)[C@H](CCCCN)NC(=O)[C@H](CC(=O)O)NC(=O)[C@H](CC(C)C)NC(=O)[C@H](CCCCNC(=O)COCCOCCNC(=O)COCCOCCNC(=O)CC[C@H](NC(=O)CCCCCCCCCCCCCCCCCCC(=O)O)C(=O)O)NC(=O)[C@@H](NC(=O)[C@H](CO)NC(=O)[C@H](Cc1ccc(O)cc1)NC(=O)[C@H](CC(=O)O)NC(=O)[C@H](CO)NC(=O)[C@@H](NC(=O)[C@H](Cc1ccccc1)NC(=O)[C@@H](NC(=O)CNC(=O)[C@H](CCC(=O)O)NC(=O)C(C)(C)NC(=O)[C@@H](N)Cc1ccc(O)cc1)[C@@H](C)O)[C@@H](C)O)[C@@H](C)CC)C(=O)N[C@@H](C)C(=O)N[C@@H](CCC(N)=O)C(=O)NC(C)(C)C(=O)N[C@@H](C)C(=O)N[C@@H](Cc1ccccc1)C(=O)N[C@H](C(=O)N[C@@H](CCC(=O)O)C(=O)N[C@@H](Cc1ccc(O)cc1)C(=O)N[C@@H](CC(C)C)C(=O)N[C@H](C(=O)N[C@@H](CCC(=O)O)C(=O)NCC(=O)NCC(=O)N1CCC[C@H]1C(=O)N[C@@H](CO)C(=O)N[C@@H](CO)C(=O)NCC(=O)N[C@@H](C)C(=O)N1CCC[C@H]1C(=O)N1CCC[C@H]1C(=O)N1CCC[C@H]1C(=O)N[C@@H](CO)C(N)=O)[C@@H](C)CC)[C@@H](C)CC
B4: Example 27 (peptide)
peptide: Y[Aib]EGTFTSDYSILK([AEEA-AEEA-γGlu-C20 diacid])DKIAQ[Aib]AFIEYLIEGGPSSGAPPPS-NH2
modifications: N-terminus assumed
SMILES: CC[C@H](C)[C@H](NC(=O)[C@H](CCCCN)NC(=O)[C@H](CC(=O)O)NC(=O)[C@H](CCCCNC(=O)COCCOCCNC(=O)COCCOCCNC(=O)CC[C@H](NC(=O)CCCCCCCCCCCCCCCCCCC(=O)O)C(=O)O)NC(=O)[C@H](CC(C)C)NC(=O)[C@@H](NC(=O)[C@H](CO)NC(=O)[C@H](Cc1ccc(O)cc1)NC(=O)[C@H](CC(=O)O)NC(=O)[C@H](CO)NC(=O)[C@@H](NC(=O)[C@H](Cc1ccccc1)NC(=O)[C@@H](NC(=O)CNC(=O)[C@H](CCC(=O)O)NC(=O)C(C)(C)NC(=O)[C@@H](N)Cc1ccc(O)cc1)[C@@H](C)O)[C@@H](C)O)[C@@H](C)CC)C(=O)N[C@@H](C)C(=O)N[C@@H](CCC(N)=O)C(=O)NC(C)(C)C(=O)N[C@@H](C)C(=O)N[C@@H](Cc1ccccc1)C(=O)N[C@H](C(=O)N[C@@H](CCC(=O)O)C(=O)N[C@@H](Cc1ccc(O)cc1)C(=O)N[C@@H](CC(C)C)C(=O)N[C@H](C(=O)N[C@@H](CCC(=O)O)C(=O)NCC(=O)NCC(=O)N1CCC[C@H]1C(=O)N[C@@H](CO)C(=O)N[C@@H](CO)C(=O)NCC(=O)N[C@@H](C)C(=O)N1CCC[C@H]1C(=O)N1CCC[C@H]1C(=O)N1CCC[C@H]1C(=O)N[C@@H](CO)C(N)=O)[C@@H](C)CC)[C@@H](C)CC
B5: Example 29 (peptide)
peptide: Y[Aib]EGTFTSDYSILLDK([AEEA-AEEA-γGlu-C20 diacid])IAQ[Aib]AFIEYLIEGGPSSGAPPPS-NH2
modifications: N-terminus assumed
SMILES: CC[C@H](C)[C@H](NC(=O)[C@H](CCCCNC(=O)COCCOCCNC(=O)COCCOCCNC(=O)CC[C@H](NC(=O)CCCCCCCCCCCCCCCCCCC(=O)O)C(=O)O)NC(=O)[C@H](CC(=O)O)NC(=O)[C@H](CC(C)C)NC(=O)[C@H](CC(C)C)NC(=O)[C@@H](NC(=O)[C@H](CO)NC(=O)[C@H](Cc1ccc(O)cc1)NC(=O)[C@H](CC(=O)O)NC(=O)[C@H](CO)NC(=O)[C@@H](NC(=O)[C@H](Cc1ccccc1)NC(=O)[C@@H](NC(=O)CNC(=O)[C@H](CCC(=O)O)NC(=O)C(C)(C)NC(=O)[C@@H](N)Cc1ccc(O)cc1)[C@@H](C)O)[C@@H](C)O)[C@@H](C)CC)C(=O)N[C@@H](C)C(=O)N[C@@H](CCC(N)=O)C(=O)NC(C)(C)C(=O)N[C@@H](C)C(=O)N[C@@H](Cc1ccccc1)C(=O)N[C@H](C(=O)N[C@@H](CCC(=O)O)C(=O)N[C@@H](Cc1ccc(O)cc1)C(=O)N[C@@H](CC(C)C)C(=O)N[C@H](C(=O)N[C@@H](CCC(=O)O)C(=O)NCC(=O)NCC(=O)N1CCC[C@H]1C(=O)N[C@@H](CO)C(=O)N[C@@H](CO)C(=O)NCC(=O)N[C@@H](C)C(=O)N1CCC[C@H]1C(=O)N1CCC[C@H]1C(=O)N1CCC[C@H]1C(=O)N[C@@H](CO)C(N)=O)[C@@H](C)CC)[C@@H](C)CC
B6: Example 28 (peptide)
peptide: Y[Aib]EGTFTSDYSILLK([AEEA-AEEA-γGlu-C20 diacid])KIAQ[Aib]AFIEYLIEGGPSSGAPPPS-NH2
modifications: N-terminus assumed
SMILES: CC[C@H](C)[C@H](NC(=O)[C@H](CCCCN)NC(=O)[C@H](CCCCNC(=O)COCCOCCNC(=O)COCCOCCNC(=O)CC[C@H](NC(=O)CCCCCCCCCCCCCCCCCCC(=O)O)C(=O)O)NC(=O)[C@H](CC(C)C)NC(=O)[C@H](CC(C)C)NC(=O)[C@@H](NC(=O)[C@H](CO)NC(=O)[C@H](Cc1ccc(O)cc1)NC(=O)[C@H](CC(=O)O)NC(=O)[C@H](CO)NC(=O)[C@@H](NC(=O)[C@H](Cc1ccccc1)NC(=O)[C@@H](NC(=O)CNC(=O)[C@H](CCC(=O)O)NC(=O)C(C)(C)NC(=O)[C@@H](N)Cc1ccc(O)cc1)[C@@H](C)O)[C@@H](C)O)[C@@H](C)CC)C(=O)N[C@@H](C)C(=O)N[C@@H](CCC(N)=O)C(=O)NC(C)(C)C(=O)N[C@@H](C)C(=O)N[C@@H](Cc1ccccc1)C(=O)N[C@H](C(=O)N[C@@H](CCC(=O)O)C(=O)N[C@@H](Cc1ccc(O)cc1)C(=O)N[C@@H](CC(C)C)C(=O)N[C@H](C(=O)N[C@@H](CCC(=O)O)C(=O)NCC(=O)NCC(=O)N1CCC[C@H]1C(=O)N[C@@H](CO)C(=O)N[C@@H](CO)C(=O)NCC(=O)N[C@@H](C)C(=O)N1CCC[C@H]1C(=O)N1CCC[C@H]1C(=O)N1CCC[C@H]1C(=O)N[C@@H](CO)C(N)=O)[C@@H](C)CC)[C@@H](C)CC

Molecular target: T1, human GIP receptor
Test: cell-based or functional assay

In order of rising “hGIPR cAMP EC50 ratio” value:
1. B6  0.106
2. B1  0.456
3. B5  0.536
4. B3  0.585
5. B2  1.5
6. B4  1.9

In order of falling “hGIPR cAMP Rel EC50” value:
1. B6  1.66 nM
2. B1  0.388 nM
3. B5  0.32 nM
4. B3  0.251 nM
5. B2  0.114 nM
6. B4  0.0789 nM

Molecular target: human GLP-1 receptor (human, UniProt P43220 24-463)
Test: cell-based or functional assay

In order of falling “hGLP1R cAMP EC50 ratio” value:
1. B3  0.238
2. B4  0.123
3. B1  0.0708
4. B5  0.0671
5. B2  0.0331
6. B6  0.00166

In order of falling “hGLP1R cAMP Rel EC50” value:
1. B6  32.7 nM
2. B2  1.84 nM
3. B5  0.999 nM
4. B1  0.891 nM
5. B4  0.557 nM
6. B3  0.293 nM
